The nanobody polyreactivity screen of Harvey et al. (2022)

experiment: yeast display, Sf9 membrane polyspecificity reagent, FACS + sequencing; frameworks hold sequencing errors
In short: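 A synthetic nanobody library was expressed on Saccharomyces cerevisiae BJ5465 by galactose induction for 36–48 hours. The library was stained for 1 hour at 4 °C with 10% biotinylated, detergent-solubilized Sf9 membrane reagent and enriched with streptavidin microbeads before FACS. Low and high (top ~1%) gates were set on anti-HA fluorescence for expression and streptavidin fluorescence for reagent binding, and each polyreactivity label reflects the gate of origin.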

Sequence | polyreactivity (PSR sort gate)
QVQLVESGGGLVQAGGSLRLSCAASGSTFWYNGMGWYRQAPGKERELVAAINWSGDSTYYADSVKGRFTISRDNAKNTVYLQMNSLKPEDTAVFYCAGGYYTYSRRSSFFVAYGYWGLGTQVTVSS | low polyreactivity
QVQLVESGGGLVQAGGSLRLSCAASGRIFDRNAMGWYRQAPGTERELVAAISRRGGSTYYADSVKGRFTISRDNAMNTVYLQMNSLKPEDTAVYYCNTGYSTRLHDYWGQGTQVTVSS | high polyreactivity
QVQLVESGGGLVQAGGSLRLSCAASGSTLGVNAMGWYRQAPGKEREFVSSITGRVGNTYYADSVKGRFTISRDNAKNTVYLQMNSLKPEDTAVYYCAARVKYTRYQSILDYYYWGQGTQVTVSS | high polyreactivity
QVQLVESGGCLVQAGGSLRLSCAASGFTFGPYAMGWYRQARGKERELVATLRSGDSTNYADSVKGRFTISRDNAKNTVYLQMNSVKPDDTAVYYCAVSYLSTMGRSRYEYWGQGTQVTVSS | low polyreactivity
QVQLVESGGGLVQAGGSLRLSCAASGRTFRDYVMGWYRQAPGKERELVAVISYRGSTYYADSVKGRFTISRDNAKNTVYLQMNSVKPEDTAVYYCAGRFSLEGGYYWGQGTQVTVSS | low polyreactivity
QVQHVESGGGLVQAGGSLRLSCAASGRILIRNAMGWYRQAPGKERELVAAINRGGGSTYYADSVKGRFTISRDNAKNTVYLQMNSLKPEDTAVYYCAADRKAGYSRVDGDYWGQGTQVTVSS | low polyreactivity
QVQLVESGGGLVQAGGSLRLSCAASGLIFYPYAMGWYRQAPGKERELVAAITSGDSTYYADSVKGRFTISRDNAKNTVYLQMNSLKPEDTAVYYCNADASYYYYHSDTVYGFDYWGQGTQVTVSS | low polyreactivity
QVQLVESGGGLVQAGGSLRLSCPASGGTFYVYAMGGYRQEPGKERELVAAISTSDGITYYADSVKGRFTISRDNAKNNVYLQMNSLKPEDTAVYYCAAVYAGVGSPVKRDYWGLGTQVTVSS | high polyreactivity
QVQLVESGGGLVQAGGSLRLSCAASGRTFRRNAMGSYRQAPGKERELVATITGGGTNYADSVKGRFTISRDNAKNTVYLQMNSLKPEDTAVYYCAVGTRFYVPRRFDYWGQGTQVTVSS | high polyreactivity
QVQLVESGGGLVQAGGSLRLSCAASGITFRLYAMGWYRPAPGKERELVAAISKRGGSTYYADSVKGRFTISRDNAKNTVYLQMNSLKPEDTAVYYCAADSGWEHRYDYWGQGTQVTVSS | high polyreactivity
RVQLVESGGGLVQAGGSLRLSCAASGRIFSYKAMGWYRQAPGKERELVAAITFSGGGTYYADSVKGRFTISRDNAKNPVYLQMNSLKPEDTAVYYCNKVSYGYSSYGYWGQGTQVTVSS | low polyreactivity
QVQLVESGGGLVQAGGSLRLSCAASGSTFGSNAMGWYRQAPGKERELVAAITGGDVSTYYADSVKGRFTISRDNAKNTDYLQMNSLKPEDTAVYYCNAEYARPAMDYWGQGTQVTVSS | low polyreactivity
QVQLVESGGGLVQAGGSLRLSCSASGSIFSYYTMGWYRQAPGKERELVAAITGSGGRTYYADSVKGRFTISRDNAKNTVYLQMNSLKPEDTAVYYCNADRHYVPYYSRPRYIPYDYWGQGTQVTVSS | high polyreactivity
QVQLVESGGGLVQAGGSISLSCAASGYIFHVYAMGWYRQAPGKERELVAAITSSGGSTYYADSVKGRFTISRDNAKNTVYLQMNSLKPEDTAVYYCAAAPCSFRYRYVVFTFGYWGQGTQVTVSS | high polyreactivity
QVQLVESGGGLVQAGGSLRLSCAASGSIFVGYVMGWYRQAPGKERELVARIRWGGGRTYYADSVKGRFTISRDNAKNTVYLQMNSLKPEDTAVYYCNARYSYHSVGYWGQGTQVTVSS | high polyreactivity
QVQLVESGGGLVQAGCSLRLSCAASGSIFDDYAMGWNRQAPGKERELVAAISSSGTSTYYADSVKGRFTISRDNAKNTVYLQMNSLKPEVTAVYYCAARSAILKSGYLMDYWGQGTHVTVSS | low polyreactivity
QVQLVESGGGLVQAGGSLRLSCAASGSIFYSNTMGWYRQAPGKERELVAAISRGGSTYYADSVKGRFTISRDNAKNTVYLQMNSLKPEDTAVYYCAARYRWAPAYDYWGQGTQVTVSS | high polyreactivity
QVQLVESGGGLVQAGGSLRLSCAASGSTFYNYAMGWYRPAPGNERELVAAIDTGGSTNYADSVKGRFTISRDNAKNTVYFQMNSLKPEVTALDYCNTVYLYGTHDYWGQGTQVTVSS | low polyreactivity
QVPLVESGGGLVQAGGSLRLSCAASGSIFWTYTIGWYRKAPGKERELVAAITSSGSTNFADSVKGRFTISRDNAKKTVYLQMNSLKPADTAVYYCAADPEYRGYQRYDYWGQGTQVTVSS | low polyreactivity
QVQLEESGGGLVQAGGSLRLSCAATGSTIPYYAMGWYRQAPGKERELVARITSGDRTFYADSVKGRFTISRDNAKNTVYLQMNSLKPEDTAVYFCNAQVHYYSWYGYWGQGTQVTVSS | high polyreactivity
QVQLVESGGGLVQAGGSLRLSCAASGGNFSLNAMGWYRQAPGKERELVATISWSGTSTHYADSVKGRFTISRDNAKNTVYLQMNSLKPEDTAVYYCNTRLYGRDYSWYDYWGQGTQVTVSS | high polyreactivity
QVQLVESGGGLVQAGGSLRLSCAASGIIFTTNAMGWYRQAPGKERELVATISTGGGTYYADSVKGRFTSSRDNAKNTVYLQMHSLKPEDTAVYYCAATPGWGPWIFDHSYVDFDYWGQGTQVTVSS | low polyreactivity
QVQLVESGGGLVQAGGSLRLSCAASGRTFVGYAMGWYRQAPGKERELVAAISRTGGSTYYADSVKGRFTISRDNAKNTVYLQMNSLKPEDTAVYYCAASPKRVLRESGDYWGQGTQVTVSS | high polyreactivity
QVHLVESGGGLVQAGGSLRLSCAASGFTFYRYAMGWYRQAPGKDRELVAAITWSGGSTYYADSVKGRFTISRDNAKNTVYLQMNSLKPEDTAVYYCAADIYDGGFDYWGQGTQVTVSS | low polyreactivity
QVQLVESGGGLVQAGGSLRISCAASGRTVWNTLGWYRQAPGKERELVAAISYSGGTTYYADSVKGRFTISRDNAKNTVYLQMNSLNPEDTAVYYCAAVRVLRGVKYNYWGQGTEVTVSS | high polyreactivity
QVQLVESGGGLVQAGGSLRLSCAASGRTFWNYAMGWYRQAPGKERELVAAIRSSGGRTYYADSVKGRFTISRDNAKNTVYLQMNSLKPEDTAVYYCAAYGFIEGIGTYDYWGQGTQVTVSS | high polyreactivity
QVQIVESGGGLVQAGGSLRLSCAASGRIFWAYAMGWYRQAPGKERELVAAITSGGSTYYADSVKGRFTISRDNAKNTVYLQMNRLKPDDTAVYYCAVGSNWVDDSPEDEYWGQGTQVTVSS | low polyreactivity
QVQLVESGGGLVQAGGSLRLSCAASGSTFGRSVMGWYRQAPGNVRELVGAISRRGGSTYYADSVKGRFTISRDNAKKTVYIQLHSRKPEDPAVYYSPVDGARSGEPYDSMDYWGQGTHVTVSS | high polyreactivity
QVQLVESGGGLVQAGGSLRLSCAASGIIFTNYAMGWYRQAPGKERELVAAISSSSGTTYYADSVKGRFTISRDNAKNTDYLQMNSLKPEDTALYYCNAGRSWRRTHYDYWVQGTQVTVSS | high polyreactivity
QVQLVESGGGLVQAGGSLRLSCAASGFIFRPYAMGSYRQAPGKERELVAAISYGDGITYYADSVKGRFTISRDNAKNTVYLQMNSLKPEDTAVYYCAAEYVSHFSGYRYDYWGQGTQVTVSS | low polyreactivity
